Test results from paper PMC8867384 (Neuron, 2020).

T1: Torpedo nicotinic acetylcholine receptor γ subunit (Tetronarce californica (formerly …, UniProt P02714 18-506))
T1 sequence (looked up): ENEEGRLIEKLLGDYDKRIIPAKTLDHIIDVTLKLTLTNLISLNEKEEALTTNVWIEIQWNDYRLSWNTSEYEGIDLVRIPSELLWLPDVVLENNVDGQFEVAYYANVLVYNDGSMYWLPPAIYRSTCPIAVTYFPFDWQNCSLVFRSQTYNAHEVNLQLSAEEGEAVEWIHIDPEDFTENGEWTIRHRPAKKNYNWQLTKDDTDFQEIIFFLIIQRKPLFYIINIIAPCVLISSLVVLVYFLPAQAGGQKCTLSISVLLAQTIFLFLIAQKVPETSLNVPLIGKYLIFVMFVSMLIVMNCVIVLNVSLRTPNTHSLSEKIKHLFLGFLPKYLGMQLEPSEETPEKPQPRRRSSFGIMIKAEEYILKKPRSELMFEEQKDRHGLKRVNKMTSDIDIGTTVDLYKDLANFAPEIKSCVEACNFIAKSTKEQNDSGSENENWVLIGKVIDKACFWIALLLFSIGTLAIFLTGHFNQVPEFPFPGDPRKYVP

T2: Torpedo nicotinic acetylcholine receptor δ subunit (Tetronarce californica (formerly …, UniProt P02718 22-522, glycosylated (site not given)))
T2 sequence (looked up): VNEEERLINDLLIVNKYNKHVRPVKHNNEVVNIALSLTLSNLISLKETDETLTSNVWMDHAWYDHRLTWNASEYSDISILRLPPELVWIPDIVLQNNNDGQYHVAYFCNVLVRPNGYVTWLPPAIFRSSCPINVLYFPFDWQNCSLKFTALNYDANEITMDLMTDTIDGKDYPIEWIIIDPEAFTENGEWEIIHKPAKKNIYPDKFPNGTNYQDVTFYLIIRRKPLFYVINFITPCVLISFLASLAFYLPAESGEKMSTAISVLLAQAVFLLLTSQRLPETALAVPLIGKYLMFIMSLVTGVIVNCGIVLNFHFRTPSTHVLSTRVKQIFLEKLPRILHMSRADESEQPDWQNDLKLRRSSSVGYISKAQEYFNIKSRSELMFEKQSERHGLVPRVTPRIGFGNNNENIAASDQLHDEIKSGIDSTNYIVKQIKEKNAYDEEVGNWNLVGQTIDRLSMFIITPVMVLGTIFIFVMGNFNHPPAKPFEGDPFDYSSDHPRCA

B1: α-bungarotoxin (natural protein)
chain: IVCHTTATSPISAVTCPPGENLCYRKMWCDAFCSSRGKVVELGCAATCPSKKPYEEVTCCSTDKCNPHPKQRPG

Tests used:
Assay in all cases: cryo-EM structure
[1] = molecular target: native Torpedo nicotinic acetylcholine receptor (Tetronarce californica (formerly Torpedo californica)) (UniProt P02710)
[2] = molecular target: Torpedo nicotinic acetylcholine receptor α subunit (Tetronarce californica (formerly …, UniProt P02710 25-461))
[3] = molecular target: T1, Torpedo nicotinic acetylcholine …
[4] = molecular target: T2, Torpedo nicotinic acetylcholine …

native Torpedo nicotinic acetylcholine receptor (Tetronarce californica (formerly Torpedo californica)), sequence (P02710 25-461, chain 1 of 2): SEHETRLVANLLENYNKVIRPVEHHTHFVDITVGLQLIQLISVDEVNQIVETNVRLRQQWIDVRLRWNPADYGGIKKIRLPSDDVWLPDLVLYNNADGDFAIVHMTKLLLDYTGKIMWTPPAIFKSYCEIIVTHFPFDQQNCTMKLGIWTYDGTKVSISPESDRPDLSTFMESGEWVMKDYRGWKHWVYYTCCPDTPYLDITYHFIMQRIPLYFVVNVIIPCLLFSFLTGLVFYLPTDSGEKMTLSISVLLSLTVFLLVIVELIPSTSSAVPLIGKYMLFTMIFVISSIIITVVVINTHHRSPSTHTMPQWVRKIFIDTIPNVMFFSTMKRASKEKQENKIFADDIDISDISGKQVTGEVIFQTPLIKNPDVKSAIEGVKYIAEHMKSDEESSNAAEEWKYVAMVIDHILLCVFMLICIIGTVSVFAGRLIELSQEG
native Torpedo nicotinic acetylcholine receptor (Tetronarce californica (formerly Torpedo californica)), sequence (P02712 25-493, chain 2 of 2, further chain): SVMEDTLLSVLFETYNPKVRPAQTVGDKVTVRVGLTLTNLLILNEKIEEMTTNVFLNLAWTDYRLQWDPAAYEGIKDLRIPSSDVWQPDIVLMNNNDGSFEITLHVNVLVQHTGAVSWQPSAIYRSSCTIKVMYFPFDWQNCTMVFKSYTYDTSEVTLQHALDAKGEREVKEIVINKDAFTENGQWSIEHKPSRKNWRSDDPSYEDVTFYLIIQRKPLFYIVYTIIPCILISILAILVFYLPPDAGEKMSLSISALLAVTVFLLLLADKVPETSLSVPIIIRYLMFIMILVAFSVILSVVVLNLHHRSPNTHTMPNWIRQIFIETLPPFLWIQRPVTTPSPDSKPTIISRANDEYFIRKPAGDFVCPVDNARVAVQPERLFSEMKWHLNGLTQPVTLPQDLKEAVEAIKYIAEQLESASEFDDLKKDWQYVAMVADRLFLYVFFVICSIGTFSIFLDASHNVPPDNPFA
Torpedo nicotinic acetylcholine receptor α subunit (Tetronarce californica, sequence (P02710 25-461): as the sequence (P02710 25-461, chain 1 of 2) above

Molecule | stoichiometry N [1] | binding result [2] | binding result [3] | binding result [4]
α-bungarotoxin (from UniProt P60615 22-95) (natural protein) | 2 | – | – | –
B1 | – | binds | binds | binds
